These results are taken from the supplement of paper PMC9170038.

The test system of this data set is MS2 coat protein. As to the kind of experiment: apparent KD of MS2 coat protein; higher = weaker reporter binding. To be noted: Eterna round: R107. Summed up:
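For every design, apparent KD is the median of normalised binding-curve fits from its clusters. The RNA switches were transcribed on-chip from Illumina sequencing clusters and titrated with SNAP-549-labelled MS2 coat protein (twofold steps, 0.7 or 1.5 nM to 3 µM; 0.8–1.5 h to 10–20 min per step). Titrations used 100 mM Tris-HCl pH 7.5, 80 mM KCl, 4 mM MgCl2, without or with constant ligand.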

The mark [1] stands for this setting: input ligand: theophylline 20 uM.
The mark [2] stands for this setting: input ligand: theophylline 2 mM.
Where [3] appears, read: input ligand: tryptophan 2.4 mM.

For “AGUAGUUGACAAAAGUCAGCUACAAUUGAAGGAGCGGGAUCCUUCCCAGGUAGGUCGCAAUAACAUGAGGAUCACCCAUGUCAAA [ArgAS 4 #BothOrNeither #OpenEnded]”, the “apparent KD of MS2 coat protein” value (input ligand: arginine 13.2 mM) worked out at 15.9 nM; the “apparent KD of MS2 coat protein” value (input ligand: none) is 27.7 nM; the “apparent KD of MS2 coat protein” value under setting [1] was 26.6 nM; the “apparent KD of MS2 coat protein” value under setting [2] is 20.4 nM; the “apparent KD of MS2 coat protein” value under setting [3] was 20.3 nM.
Turning to “AGUCACUCGAGGUGAUCUGACGAGUGGCAACGAGGACCGGUACGGCCGCCACUCGAAUAAACAUGAGGAUCACCCAUGUACAAAU [T''-M'-T'-T-MS2 - Design 11]”, the “apparent KD of MS2 coat protein” value (input ligand: arginine 13.2 mM) is 54 nM, the “apparent KD of MS2 coat protein” value under setting [1] is 216 nM and the “apparent KD of MS2 coat protein” value under setting [2] was 626 nM.
For the sequence “AGUCUUAAUGGAAGGAGCGCAGUCAUAACAUGAGGAUCACCCAUGUCGAUGUGAGGGUCAUUGCAGGUAGGUCGCCAUACUAAGA [Same State - Arginine B (Freestyle 4)]”, the “apparent KD of MS2 coat protein” value (input ligand: arginine 13.2 mM) was determined as 24.7 nM; the “apparent KD of MS2 coat protein” value (input ligand: none) amounted to 31 nM; the “apparent KD of MS2 coat protein” value under setting [1] worked out at 25 nM; the “apparent KD of MS2 coat protein” value under setting [2] was determined as 25.3 nM; the “apparent KD of MS2 coat protein” value under setting [3] was determined as 32.6 nM.
As to “AGUCUUGAACGAAGGAGCGACGUACAUGAGGAUCACCCAUGUGGAGCGAAAGCUCCGUAACGUCAGGUAGGUCGCGUUCGAGACA [Omei Arginine B SS A v3]”, the “apparent KD of MS2 coat protein” value was 6.89 nM (input ligand: arginine 13.2 mM); 9.25 nM (input ligand: none); 15.6 nM under setting [1]; 13.1 nM under setting [2]; 12.5 nM under setting [3].
“AGUUUGGACUCGGCCGCCACUCGUGAUGCUUUGGCACAUGAGGAUCACCCAUGUGGUCGGCCUUAGAGGACCGGGAGUACCAGCC [Edesceso]”: the “apparent KD of MS2 coat protein” value is, setting by setting: (input ligand: arginine 13.2 mM) 82.5 nM; under setting [1], 297 nM; under setting [2], 342 nM.
In the case of “AUAACAUGAGGAUCACCCAUGUAAGCAGAUACCAGCUAGGAAACUAGCCCUUGGCAGCUGCAAUCAUGGGUGUUUGCAGCUGCAA [(M1)-(M2)-(T1)-(T2)-(M)'-(T)'_Design2]”, the “apparent KD of MS2 coat protein” value runs as follows: (input ligand: arginine 13.2 mM) 21.2 nM; (input ligand: none) 18.1 nM; under setting [1], 36.9 nM; under setting [2], 19.9 nM; under setting [3], 13 nM.
Turning to “AUAAGUAAUGUUUCGUGUAUUAUUACAGAUACCAGACUAUACGUUGUCCCUUGGCAGCUGGAUUACAUGAGGAUCACCCAUGUUG [JR_ExcTheophyA_Sub002]”, the “apparent KD of MS2 coat protein” value was 16 nM (input ligand: arginine 13.2 mM), 19.3 nM under setting [1] and 17.1 nM under setting [3].
Consider “AUACAUGAGGAUCACCCAUGUGAUGGCCGGCGAGGACCGGUACGGCCGCCACUCGUGAUCCGUCCUGAAAGCAAAGCUCCCAGCA [Lalazare]”, for which the “apparent KD of MS2 coat protein” value was 25.1 nM (input ligand: arginine 13.2 mM), 244 nM under setting [1] and 178 nM under setting [2].
As to “AUACCUAAUGUUACAUUUACCUUAUCAGAUACCAGACUUUACGUUGUCCCUUGGCAGCUGUAUCACAUGAGGAUCACCCAUGUUG [JR_SSTheophyA_Sub010]”, the “apparent KD of MS2 coat protein” value by setting is: (input ligand: arginine 13.2 mM) 17.1 nM; under setting [1], 19.2 nM; under setting [3], 15.3 nM.
“AUAUAUACAUGAGGAUCACCCAUGUUAUUACGAGGACCGGUACGGCCGCCACUCGAUAGAGUAGAAGUAAAUUGUAAUUCAUGUU [JR_ExcTryptoA_Sub016]”: the “apparent KD of MS2 coat protein” value by setting is: (input ligand: arginine 13.2 mM) 13.8 nM; under setting [1], 15.6 nM; under setting [2], 11.6 nM.
For “AUAUAUACAUGAGGAUCACCCAUGUUAUUUCGAGGACCGGUACGGCCGCCACUCGAUAGAGUGGAAGUAACAUUUGUUAGAUGAU [JR_SSTryptoA_Sub013]” the same measures were 12.8 nM, 17 nM and 16.3 nM.
Regarding “AUCCACAGCCGAAGGAGCGCAGUAGGAUGACAUGAGGAUCACCCAUGUGUGUGAUGUGGAUUGCAGGUAGGUCGCGGAGUGGGUU [Exclusion - Arginine B (Freestyle 8)]”, the “apparent KD of MS2 coat protein” value is, setting by setting: (input ligand: arginine 13.2 mM) 43.9 nM; (input ligand: none) 71.7 nM; under setting [1], 72.5 nM; under setting [2], 73.6 nM; under setting [3], 72.6 nM.
Regarding “AUCGUACCUAAUGAUACCAGCAAGUGAUCAUAACAUGAGGAUCACCCAUGUAAUCAGUGAUGCCCUUGGCAGCAUAAUCGUUACA [Same State - Theophylline B (Freestyle 2)]”, the “apparent KD of MS2 coat protein” value came out at 94.7 nM (input ligand: arginine 13.2 mM), 218 nM under setting [1] and 169 nM under setting [3].
Regarding “AUCGUACCUAGUGAUACCAGCAAGUGAUCAUAACAUGAGGAUCACCCAUGUAAUCAGUGAUGCCCUUGGCAGCAUAAUCGUUACA [Same State - Theophylline B (Freestyle 1)]”, the “apparent KD of MS2 coat protein” value (input ligand: arginine 13.2 mM) came out at 118 nM, the “apparent KD of MS2 coat protein” value under setting [1] was determined as 228 nM and the “apparent KD of MS2 coat protein” value under setting [3] was 173 nM.
“AUCUUUGAUGAUCUGGGAAAACCAGAUCGGCGAGGACCGGUACGGCCGCCACUCGUGUAUAAUAUACAUGAGGAUCACCCAUGUA [#20 Tryptophan A Same State]”: the “apparent KD of MS2 coat protein” value turned out to be 50 nM (input ligand: arginine 13.2 mM); 55.4 nM (input ligand: none); 99 nM under setting [1]; 91.6 nM under setting [2]; 25.1 nM under setting [3].
Take “AUCUUUGGCGAUCUGGGAAAACCAGAUCGACGAGGACCGGUACGGCCGCCACUCGUGUAUAAUAUACAUGAGGAUCACCCAUGUA [#18 Tryptophan A Same State]”: the “apparent KD of MS2 coat protein” value is 27.8 nM (input ligand: arginine 13.2 mM), 61.1 nM under setting [1] and 64.7 nM under setting [2].
